In patent US20100279409A1, “METHOD FOR MODIFYING CELLUAR IMMUNE RESONSE BY MODULATING ACTIVIN ACTIVITY” (priority 2007, published 2010):

Experiments:
[1] = system: Human MoDCs; experiment: Activin-A secretion by stimulated MoDCs; type: cell-based; conditions: MoDCs in GM-CSF and IL-4, 2-72 hours
Experimental: Human MoDCs were co-cultured, in a medium containing both GM-CSF and IL-4, with one of (i) intact E. coli, (ii) CD40L, (iii) a TLR ligand (LPS, R848, Poly I:C, or Pam3Cys, which bind, respectively, to TLR4, 7/8, 3, and 2/6), or (iv) one of the inflammatory mediators PGE2 or ATP. Culture was carried out for from 2-72 hours. Supernatants were collected, and assayed for activin-A, using standard methods.

[2] = system: Human NK cells; experiment: IFN-γ ELISA of purified NK cells; type: cell-based; conditions: for IFN-γ production: NK cells
Experimental: A total of 1×10^5 highly purified human NK cells were cultured for 20 hours in medium supplemented with 20 U/ml IL-2, and 10 ng/ml IL-12. Either human recombinant activin-A, or TGF-β was added to the cultures, at concentrations of 10, 50 and 100 ng/ml. Supernatants were then tested for IFN-γ via ELISA, using standard methods. In these experiments 1×10^5 highly purified human NK cells were cultured as above, but were cultured with Poly I:C (10 μg/ml), or LPS (100 ng/ml), with or without 10, 50, or 100 ng/ml of recombinant human activin-A. In some cases, the known compound “SB431542,” which blocks activin-A binding to receptors was added. IFN-γ was then measured via ELISA, or by intracellular cytokine staining after 16 hours of culture, via addition of 1 μg/ml BFA, to prevent cytokine release. The impact of activin-A on production of IFN-γ by NK cells, in the absence of dendritic cells, was ascertained. Purified NK cells (1×10^5) were cultured in 96 well-plants, in media that was supplemented with 20 U/ml IL-2 and 10 ng/ml, IL-12, in the absence of, or with increasing concentrations of either activin-A, or TGF-β. Culture supernatants were assayed for IFN-γ after 24 hours of culture, using ELISAs, as described supra. As in the prior experiments, 1×10^5 purified NK cells were cultured in media supplemented with IL-2 only, or IL-2 plus IL-12, either with or without one of poly I:C or LPS, in the presence or absence of increased levels of activin-A.

[3] = system: MoDCs; experiment: qRT-PCR kinetics of activin receptor mRNA in stimulated MoDCs; type: cell-based, human
Experimental: In follow up experiments, the kinetics of gene expression described in Example 1 were studied, by stimulating MoDCs with either of trimeric CD40L or LPS, via quantitative real time PCR, or “qRT-PCR,” using standard methods and primers specific for activin βA and the activin receptor molecules ALK-2, and ALK-4. The primers differed from those used in the RT-PCR work, described supra. Stimulus was accomplished with 2 μg/ml of CD40L trimer, or 100 ng/ml of E. coli derived LPS for anywhere from 2-24 hours. As a control, MoDCs were cultured in GM-CSF plus IL-4 for the same length of time.

[4] = system: NK cells; experiment: NK cell viability by caspase and PI staining; type: cell-based, human; conditions: 24 hours
Experimental: With respect to testing viability, 1×10^5 purified NK cells were cultured as described supra, in 96 well-plates. After 24 hours of culture, cells were stained with antibodies to polycaspase, caspase 3/7, caspase 8 and PI.

[5] = system: NK cells (target cells K562 or Jurkat cells); experiment: NK cell killing of calcein-labeled target cells; type: cell-based, human; conditions: 100 ng/ml, 3 days culture, K562 or Jurkat targets, 4 hours
Experimental: 1×10^6 purified NK cells were cultured in 24 well-plates, either with a high dose of IL-2 (100 U/ml), or a combination of 20 U/ml of IL-2 and IL-12. The culturing took place in the absence of either of activin-A or TGF-β or 100 ng/ml of one of them. The culture continued for 3 days.
After the 3 days of culture, the NK cells were combined with target cells K562 or Jurkat cells, at effector (NK cells): target (K562 or Jurkat cells) ratios of 5:1, 2:1, and 0.1:1. The target cells had been labeled with calcein previously. The total number of labeled target cells was 2×10^4, and the mixture was incubated for 4 hours. The efficiency of killing was determined by measuring calcein dye release via spectrometry.

[6] = system: NK cells; experiment: NKp30 expression on NK cells by flow cytometry; type: cell-based, human; conditions: NK cells after 3 day culture, 100 ng/ml
Experimental: In order to investigate the mechanism behind these differences, the same NK cells were purified and cryopreserved immediately after the 3 day culture period. The cells were thawed, washed, and stained for NCR. NKp30, with expression levels determined via flow cytometry. The level of expression was also determined using “ex vivo” samples, and NK cells that were cultured, without exposure to targets.

[7] = system: MoDCs; experiment: IL-10 secretion and mRNA in MoDCs with follistatin; type: cell-based, human
Text: Supernatants were screened, via standard ELISAs, for a large array of cytokines and chemokines, including pleiotropic IL-10.

[8] = system: MoDCs co-cultured with NK cells; experiment: IFN-γ production in MoDC and NK cell co-culture with follistatin; type: cell-based, human
Experimental: The dendritic cells were obtained by culturing CD14^+ monocytes with GM-CSF and IL-4, for 6-7 days, which are standard culture conditions. A sample of 5×10^4 MoDCs were co-cultured with 1×10^5 NK cells, either with or without 400 ng/ml follistatin. As controls, samples of each type of cell were cultured individually.
IFN-γ production was measured, as described supra.
To test this, 5×10^4 immature MoDCs were cultured, in 96 well-plates, in standard media supplemented with 20 U/ml IL-2 and 20 ng/ml GM-CSF only, or with the addition of 1×10^5 autologous NK cells. In addition, the cells were stimulated with IL-12 and poly I:C. In addition, 400 ng/ml of follistatin was added to cultures in order to neutralize activin-A.
After 24 hours, supernatants were collected, and assayed for IFNγ via a standard ELISA.

[9] = system: MoDCs; experiment: IL-12p35 expression, IL-12p70 and TNF-α secretion by CD40L-stimulated MoDCs; type: cell-based, human
Experimental: In view of this, the experiments were extended to investigate the impact, if any on IL-12p70, a potent TH1 cytokine, and pro-inflammatory TNF-α. The experiments were carried out in the same way as the prior experiments were.

[10] = system: MoDCs; experiment: qRT-PCR of IL-6 mRNA in MoDCs with follistatin; type: cell-based, human; conditions: follistatin 400 ng/ml
Experimental: When qRT-PCR was carried out, a 15 fold increase in IL-6 mRNA expression was observed 2 hours after MoDC stimulation and the 400 ng/ml dose of follistatin, with a peak at 4 hours, (30 fold), with a decrease over 6-24 hours.

[11] = system: MoDCs; experiment: IL-6 and cytokine ELISA of stimulated MoDCs with follistatin; type: cell-based, human; conditions: for IL-6 production: follistatin 0, 20, 100 ng/ml
Experimental: Prior studies had shown that, in an in vivo LPS challenge model, activin-A is released into the circulatory system rapidly, and can be detected prior to IL-6, and just prior to TNF-α release. […] This was tested by combining MoDCs with trimeric CD40L, or LPS, at a fixed concentration, together with varying concentrations of follistatin (0, 20, and 100 ng/ml) MoDCs were combined with GM-CSF and IL-4 as a control. Supernatants were collected after 4 hours, 24 hours, and 48 hours of culture, and then assayed for IL-6 via a standard ELISA.
Further experiments were then carried out, using trimeric CD40L or concentrations of LPS and follistatin that were even higher (1 ng/ml-150 ng/ml for LPS, and 400 ng/ml for follistatin).

[12] = system: MoDC; experiment: Chemokine secretion by CD40L-stimulated MoDCs with follistatin; type: cell-based, human; conditions: 24 hours, increasing follistatin
Experimental: MoDC culture supernatants were screened following 24 hours of culture, using controls, and increasing concentration of follistatin, as described supra. Assays were carried out, following standard methods, for IL-12p70, TNF-α, IL-8, IP-10, RANTES, and MCP-1.

[13] = system: immature MoDCs; experiment: Activin-A ELISA of CD40L-stimulated MoDCs with follistatin; type: cell-based, human; conditions: CD40L 2 μg/ml
Experimental: The early autocrine/paracrine release of activin-A by MoDCs was viewed as a possible potentiating feedback loop to further activin-A production. To test this, immature MoDCs were cultured with 2 μg/ml of CD40L, together with increasing concentrations of follistatin (0-400 ng/ml). Supernatants were collected over a 6 hour period and activin-A was qualified in a standard ELISA.

[14] = system: CD8+ T cells co-cultured with MoDCs; type: cell-based, human; conditions: follistatin 400 ng/ml, nine days, IFN-γ secretion and CD107a expression
[15] = CD40L-stimulated MoDCs with follistatin

In the case of `Nc1ncnc2c1ncn2[C@@H]1O[C@H](COP(=O)(O)OP(=O)(O)OP(=O)(O)O)[C@@H](O)[C@H]1O` [ATP], the activin-A secretion [1] is reported as “neither of these stimulated activin-A release above the levels observed in unstimulated MoDC cultures”.

`CCCCC[C@H](O)/C=C/[C@H]1[C@H](O)CC(=O)[C@@H]1C/C=C\CCCC(=O)O` [PGE2] was tested, and the activin-A secretion [1] was “neither of these stimulated activin-A release above the levels observed in unstimulated MoDC cultures”.

With `CCOCc1nc2c(N)nc3ccccc3c2n1CC(C)(C)O` [R848] the activin-A secretion [1] was “significant amounts of activin-A after 6 hours of stimulation”.

With `NC(=O)c1ccc(-c2nc(-c3ccc4c(c3)OCO4)c(-c3ccccn3)[nH]2)cc1` [SB431542, reference compound] the “activin-A suppression of IFN-γ production” value ([2]; added at a concentration of 10 for 30 minutes before activin-A) was “reversed”.

In the case of “CD40L: trimeric CD40L used to stimulate MoDCs”, the “activin RIIA mRNA” value ([3]; after 2 hours) is reported as “upregulated”, the “ALK-4 mRNA” value ([3]; after 24 hours of stimulation, vs controls) is reported as “significantly higher than controls” and the “ALK-4 mRNA” value ([3]; early in the culture period) is reported as “downregulated”. The “activin RIIB mRNA” value ([3]; over 2-24 hours) was “early down regulation, followed by increases over time”.

Pam3Cys was tested, and the activin-A secretion [1] was “did not”.

With Poly I:C [reference compound] the activin-A secretion [1] was “significant amounts of activin-A after 6 hours of stimulation” and the “IFN-γ production induced by stimulus” value ([2]; added to stimulated NK cultures) was “enhanced IFN-γ production”.

For TGF-β, the IFN-γ production ([2]; IL-2 and IL-12, 20 hours, 10, 50, 100 ng/ml) was “suppressing the production of IFN-γ”, the IFN-γ production ([2]; IL-2 and IL-12, 24 hours, increasing concentrations) was “inhibiting IFN-γ production” and the “apoptosis (polycaspase, caspase 3/7, caspase 8, PI staining)” value [4] was “no indication of apoptosis”. The “killing ability of NK cells” value [5] was “significantly suppressed” and the NKp30 expression [6] was “substantial down regulation of the receptor”.

B1: follistatin (protein, UniProt P19883 30-344, looked up)
Follistatin: GNCWLRQAKNGRCQVLYKTELSKEECCSTGRLSTSWTEEDVNDNTLFKWMIFNGGAPNCIPCKETCENVDCGPGKKCRMNKKNKPRCVCAPDCSNITWKGPVCGLDGKTYRNECALLKARCKEQPELEVQYQGRCKKTCRDVFCPGSSTCVVDQTNNAYCVTCNRICPEPASSEQYLCGNDGVTYSSACHLRKATCLLGRSIGLAYEGKCIKAKSCEDIQCTGGKKCLWDFKVGRGRCSLCDELCPDSKSDEPVCASDNATYASECAMKEAACSSGVLLEVKHSGSCNSISEDTEEEEEDEDQDYSFPISSILEW
In the case of B1, the “IL-10 mRNA expression” value ([7]; CD40L-stimulated MoDCs with follistatin, peak at 4 hours) is reported as “increased IL-10 mRNA expression”, the “CD40L mediated IL-10 secretion” value ([7]; MoDCs with follistatin) is reported as “enhanced IL-10 secretion by the MoDCs in a dose dependent manner” and the “E. coli mediated IL-10 secretion” value ([7]; MoDCs with follistatin) is reported as “did not impact”. For the same molecule, the IFN-γ production ([8]; MoDCs co-cultured with NK cells, follistatin 400 ng/ml) was “increased markedly”, the IFN-γ production ([8]; NK cells alone stimulated with cytokines) was “had no impact” and the IFN-γ production ([8]; immature MoDCs and autologous NK cells, IL-12 and poly I:C, follistatin 400 ng/ml, 24 hours) was “significant increases in IFN-γ production”. For the same molecule, the IL-12p70 protein secretion [9, 15] was “dose dependent enhancement”, the TNF-α secretion [9, 15] was “dose dependent enhancement peaking at 24 hours” and the “IL-12p35 expression vs CD40L alone” value ([9]; at 24 hours, CD40L plus follistatin) was “at least 15 fold”. The IL-12p70 secretion ([9]; follistatin alone, without any other stimulus) was “did not induce IL-12p70 secretion”, the “increase in IL-6 mRNA expression” value ([10]; 2 hours after MoDC stimulation) was 15 fold and the “increase in IL-6 mRNA expression” value ([10]; peak at 4 hours) was 30 fold. The IL-6 production ([11]; CD40L-stimulated MoDCs) was “as follistatin concentration increased, so too did IL-6 production”, the “LPS mediated IL-6 production” value ([11]; LPS 1 ng/ml-150 ng/ml, follistatin 400 ng/ml) was “not LPS mediated IL-6 production, at any dose” and the IL-6 production ([11]; LPS-stimulated MoDCs) was “did not influence its production”. The “CD40L mediated production of IL-6” value ([11]; follistatin 400 ng/ml) was “dramatically enhanced”, the MoDC cytokine production ([11]; follistatin alone, no other stimulus) was “did not induce MoDC cytokine production” and the IL-8 production [12] was “substantially enhanced”. For the same molecule, the MCP-1 production [12] was “substantially enhanced”, the RANTES production [12] was “substantially enhanced” and the activin-A production ([13]; follistatin 0-400 ng/ml, first 2-4 hours) was “dose dependent decreases in activin-A production”. The activin-A production ([13]; follistatin 400 ng/ml, at 6 hours) was “unable to abrogate the level of activin-A production”, the “percentage of influenza matrix specific CD8+ T cells displaying effector function” value [14] was “significantly increased” and the “total number of influenza matrix specific CD8+ T cells displaying effector function” value [14] was “significantly increased”.
